According to patent US9637538:

Legend:
[1] = target: HLA class II antigens (HLA-DR, HLA-DQ and HLA-DP); experiment: Luminex dose/response, average over 5 class II bead types, antibody at 2 × 10^-3 µg/ml
[2] = target: HLA class II antigens (HLA-DR, HLA-DQ and HLA-DP); experiment: Luminex dose/response, average over 5 class II bead types, antibody at 5 × 10^-1 µg/ml
[3] = target: HLA class II antigens (HLA-DR, HLA-DQ and HLA-DP); experiment: Luminex dose/response, average over 5 class II bead types, antibody at 7.8 × 10^-3 µg/ml
[4] = target: HLA class II antigens (HLA-DR, HLA-DQ and HLA-DP); experiment: Luminex dose/response, average over 5 class II bead types, antibody at 2 × 10^0 µg/ml
[5] = target: HLA class II antigens (HLA-DR, HLA-DQ and HLA-DP); experiment: Luminex dose/response, average over 5 class II bead types, antibody at 5 × 10^-4 µg/ml
[6] = target: HLA class II antigens (HLA-DR, HLA-DQ and HLA-DP); experiment: Luminex dose/response, average over 5 class II bead types, antibody at 3.13 × 10^-2 µg/ml
[7] = target: HLA class II antigens (HLA-DR, HLA-DQ and HLA-DP); experiment: Boltzmann sigmoid fit of the Luminex titration curve; asymptote as the concentration tends to 0
[8] = target: HLA class II antigens (HLA-DR, HLA-DQ and HLA-DP); experiment: Boltzmann sigmoid fit of the Luminex titration curve; concentration at 50% of the specific signal (MAX-MIN)
[9] = target: HLA class II antigens (HLA-DR, HLA-DQ and HLA-DP); experiment: Luminex, Labscreen Mixed, each of the 5 class II bead types, antibody at 2 µg/ml
[10] = target: HLA class II antigens (HLA-DR, HLA-DQ and HLA-DP); experiment: Luminex dose/response, average over 5 class II bead types, antibody at 1.25 × 10^-1 µg/ml
[11] = target: HLA class II antigens (HLA-DR, HLA-DQ and HLA-DP); experiment: Boltzmann sigmoid fit of the Luminex titration curve; asymptote at infinite concentration

Average fluorescence intensity (fluorescence intensity) [1]: 1090 | Average fluorescence intensity (fluorescence intensity) [2]: 22800 | Average fluorescence intensity (fluorescence intensity) [3]: 3520 | Average fluorescence intensity (fluorescence intensity) [4]: 23600 | Average fluorescence intensity (fluorescence intensity) [5]: 316 | Average fluorescence intensity (fluorescence intensity) [6]: 9130 | MIN [7]: 88 fluorescence | EC50 [8]: 0.05 µg/mL | fluorescence (average fluorescence units) [9]: 22000 | Average fluorescence intensity (fluorescence intensity) [10]: 18000 | MAX [11]: 24600 fluorescence
B1: monoclonal chimeric immunoglobulin Hu-IgG1 K [F3.3] (antibody, V domains shown)
VH: EVKLEESGGGLVQPGGSMKLSCVASGFTFSNSWMNWVRQSPEKGLEWVAEIRLKSNNYATRYAESVKGRFTISRDDSKSSVYLQMNNLRSEDTAIYYCTPLSYSFDYWGQGTTVTVST
VL: QIVLTQSPAIMSASPGEKVTMTCSASSIVRYMYWFQQKPGSSPRLLIYDTSSLSSGVPVRFSGSGSGTSYSLTISRMEAEDAATYFCQQWSSYPLTFGGGTKLEIKR
